In paper PMC7534470 (The Plant Cell, 2020):

Target: T1, MBP-COP1 (Arabidopsis thaliana, UniProt P43254 1-675)
T1 sequence (looked up): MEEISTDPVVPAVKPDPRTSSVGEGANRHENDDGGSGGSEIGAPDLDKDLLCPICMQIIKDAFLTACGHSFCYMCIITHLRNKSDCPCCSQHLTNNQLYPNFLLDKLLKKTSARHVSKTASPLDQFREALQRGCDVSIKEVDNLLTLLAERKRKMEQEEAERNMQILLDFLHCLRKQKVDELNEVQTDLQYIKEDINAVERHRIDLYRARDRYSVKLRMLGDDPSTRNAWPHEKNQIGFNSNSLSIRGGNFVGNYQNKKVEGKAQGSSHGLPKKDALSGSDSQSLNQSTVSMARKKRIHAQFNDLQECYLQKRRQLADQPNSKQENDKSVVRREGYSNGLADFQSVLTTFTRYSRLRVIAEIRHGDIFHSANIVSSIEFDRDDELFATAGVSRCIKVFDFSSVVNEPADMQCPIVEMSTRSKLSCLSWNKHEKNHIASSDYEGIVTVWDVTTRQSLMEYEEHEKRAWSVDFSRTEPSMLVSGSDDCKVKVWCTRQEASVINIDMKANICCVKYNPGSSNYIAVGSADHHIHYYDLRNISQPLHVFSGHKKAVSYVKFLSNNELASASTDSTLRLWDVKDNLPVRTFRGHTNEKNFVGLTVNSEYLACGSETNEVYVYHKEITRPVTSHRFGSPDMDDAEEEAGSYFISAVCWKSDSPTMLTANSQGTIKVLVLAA
Experiment: pull-down

binding result: binds
B1: His-COR27 (natural protein, Arabidopsis thaliana, UniProt Q8L8T7 1-246, looked up)
chain: MVGDYRGRFSSRRFSDDSDDSSDDASSVEGETTSSMYSAGKEYMETEWTNEKHSLYLKSMEASFVDQLYNSLGALGKNENVSESTRFGSGRKPSQEQFKVLHDGFWQKINVKQPEHRINGRHGGNSHEFLRSPWIKHYKPLVKTQIPVTDEPENQVVSSSNGKKGICSSGSASSLKQLSSHSRDHDQISVGEAEVSDQNFVNEGIKGENGSSKKMKTVMMSESSSTDQVVPLNKLLQHDVNLKSVS
